According to US20130142806A1 (Eli Lilly, published 2013):
Numbering of substitutions follows the chain as printed. Numbers in names are those of the source. Square brackets hold non-standard residues; d marks the D form. pGlu = O=C1CC[C@@H](C(=O)O)N1

T1: pE3-16 (Pyr-…-biotin) (human)
T1 construct: also called pE3-16B
T1 peptide: [pGlu]FRHDSGYEVHHQK-biotin

B1: Antibody II (R17L) (antibody, human IgG1, kappa, V domains shown)
VH: QVQLVQSGAEVKKPGSSVKVSCKASGYTFTRYYINWVRQAPGQGLEWMGWINPGSGNTKYNEKFKGRVTITADESTSTAYMELSSLRSEDTAVYYCAREGTTVYWGQGTTVTVSS
VL: DIVMTQTPLSLSVTPGQPASISCKSSQSLLYSRGKTYLNWLLQKPGQSPQLLIYAVSKLDSGVPDRFSGSGSGTDFTLKISRVEAEDVGVYYCVQGTHYPFTFGQGTKLEIKR
notes: Human engineered anti-N3pGlu Aβ monoclonal antibody
B2: Antibody I (B12L) (antibody, human IgG1, kappa, V domains shown)
VH: B1 VH with T28D, T101I
VL: B1 VL
notes: as for B1
B3: Antibody VII (mE8c) (antibody, mouse IgG2a, kappa, V domains shown)
VH: EVQLLESGPELVKPGASVKISCKASGYTFTDYYINWVKQRPGQGLEWIGWINPGSGNTKYNEKFKGKATLTVDTSSSTAYMQLSSLTSEDSAVYFCTREGETVYWGQGTTLTVSS
VL: B1 VL with D1N, M4L, S10T, P15I, K44R, Q50K, L51R, S68I, V88L, Q105S
notes: Mouse IgG2a isotype of the mE8 clone; also called mE8c - IgG2a; parental mouse antibody

Molecular target: T1, pE3-16 (Pyr-…-biotin)
Assay: SPR (BIACORE 2000), antibody captured, peptide injected

Q: Does B1 bind?
A: Result: binds

Q: Does B2 bind?
A: Result: binds

Q: Does B3 bind?
A: Result: binds

molecular target: T2, Aβ1-40 (UniProt P05067 672-711); assay: as above
T2 construct: domain: Aβ1-40; The numbers 1-40 count on the Aβ peptide, not on the APP precursor
T2 sequence (P05067 672-711 limits assumed): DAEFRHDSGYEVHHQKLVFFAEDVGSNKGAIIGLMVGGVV

Q: Does B1 bind?
A: Result: no binding

Q: Does B2 bind?
A: Result: no binding

Q: Does B3 bind?
A: Result: no binding
